# What was measured:
# α4β1 integrin = target: T1, α4β1 integrin (Homo sapiens, UniProt P05556+P13612); experiment: adhesion of Jurkat cells to VCAM-1; assay type: cell-based; details: α4β1, VCAM-1
# T1 construct: endogenous in cells; host or cells: Jurkat cells
# Method: (§1) Adhesive ligands for the selected integrins consisted of collagen IV (0.2 μg/well), collagen I, fibronectin, or vascular cell adhesion molecule-1 (VCAM-1). Adhesive ligands in 0.02 M acetic acid were immobilized overnight at 4° C. on a 96-well plate. Plates were then blocked with 1% (w/v) BSA (bovine serum albumin) in Hank's Balanced Salt Solution (HBSS) containing 3 mM Mg^2+ at room temperature for 1-2 hours to prevent cells from non-specifically binding to the plates. α1K562, α2K562, K562, A5, and Jurkat cells expressing the α1β1, α2β1, α5β1, αIIbβ3, and α4β1 integrins respectively were labeled by incubation with 12.5 μM 5-chloromethylfluorescein diacetate (CMFDA) in HBSS for 15 minutes at 37° C. CMFDA labeled cells were then pelleted, washed and resuspended in HBSS buffer containing 3 mM Mg^2+ and 1% (w/v) BSA. […] Plates were then incubated at 37° C. for 30 minutes as indicated in Table 5 and washed three times with HBSS containing 3 mM Mg^2+ and 1% (w/v) BSA to remove unbound cells. Bound cells were lysed using 0.5% (v/v) Triton X-100 in H2O. Fluorescent CMFDA released by lysis of adherent cells in a given well was read using a Cytofluor 2350 fluorescence plate reader.
# (§2) The effect of obtustatin, viperisrastatin, echistatin, and eristostatin on the binding of selected integrins to their adhesive ligands was evaluated using the cell adhesion assay described in Example 6. The integrin-expressing cells, integrins and corresponding adhesive ligands, and the results of the cell adhesion assay are shown in Table 6.
# α1β1 integrin [1] = target: T2, α1β1 integrin (Mus musculus, UniProt P09055+Q3V3R4); experiment: adhesion of B16F10 cells to collagen IV; assay type: cell-based; details: α1β1, Coll IV
# T2 construct: endogenous in cells; host or cells: B16F10 cells
# α1β1 and α2β1 integrins = experiment: adhesion of unblocked MV3 cells to immobilized collagen IV; assay type: cell-based, human
# Method: (§3) The α1β1 integrin specific inhibitory effect of obtustatin was confirmed using human melanoma MV3 cells. MV3 cells express both the α1β1 and α2β1 integrins. MV3 cells adhere strongly to collagen IV through α1β1 and α2β1 integrin-mediated interactions.
# Collagen IV (0.2 μg/well) in 0.02 M acetic acid was immobilized overnight at 4° C. on a 96-well plate. Plates were then blocked with 1% (w/v) BSA (bovine serum albumin) in Hank's Balanced Salt Solution (HBSS) containing 3 mM Mg^2+ at room temperature for 1-2 hours to prevent cells from non-specifically binding to the plates. […] were labeled by incubation with 12.5 μM 5-chloromethylfluorescein diacetete (CMFDA) in HBSS for 15 minutes at 37° C. CMFDA labeled MV3 cells were then pelleted, washed and resuspended in HBSS buffer containing 3mM Mg^2+ and 1% (w/v) BSA. 1×10^5 cells were then added to each well in the presence (10 μg/ml) or absence of the α1 integrin subunit specific AJH10 mAb and α2 integrin subunit specific P1E6 mAb as indicated in FIG. 5. Obtustatin was added at the concentrations indicated in FIG. 5 simultaneously with the mAbs. The plates were then incubated at 37° C. for 30 minutes and washed three times with HBSS containing 3 mM Mg^2+ and 1% (w/v) BSA to remove unbound cells. […] Fluorescent CMFDA released by lysis of adherent cells in a given well was read using a Cytofluor 2350 fluorescence plate reader. […]
# α2β1 integrin [2] = target: T3, α2β1 integrin (Homo sapiens, UniProt P05556+P17301); experiment: adhesion of AJH10 blocked MV3 cells to immobilized collagen IV; assay type: cell-based; set-up: endogenous in cells; host or cells: MV3 human melanoma cells; details: adhesion via α2β1
# Method: as §3
# (§4) Collagen IV (0.2 μg/well) in 0.02 M acetic acid was immobilized overnight at 4° C. on a 96-well plate. Plates were then blocked with 1% (w/v) BSA (bovine serum albumin) in Hank's Balanced Salt Solution (HBSS) containing 3 mM Mg^2+ at room temperature for 1-2 hours to prevent cells from non-specifically binding to the plates. α1K562 cells were labeled by incubation with 12.5 μM 5-chloromethylfluorescein diacetete (CMFDA) in HBSS for 15 minutes at 37° C. CMFDA labeled MV3 cells were then pelleted, washed and resuspended in HBSS buffer containing 3mM Mg^2+ and 1% (w/v) BSA. 1×10^5 cells were then added to each well in the presence (10 μg/ml) or absence of the α1 integrin subunit specific AJH10 mAb and α2 integrin subunit specific P1E6 mAb as indicated in FIG. 5. Obtustatin was added at the concentrations indicated in FIG. 5 simultaneously with the mAbs. The plates were then incubated at 37° C. for 30 minutes and washed three times with HBSS containing 3 mM Mg^2+ and 1% (w/v) BSA to remove unbound cells. […] Fluorescent CMFDA released by lysis of adherent cells in a given well was read using a Cytofluor 2350 fluorescence plate reader.
# α6β1 integrin = target: T4, α6β1 integrin (Homo sapiens, UniProt P05556+P23229); experiment: adhesion of α6K562 cells to laminin; assay type: cell-based; details: α6β1, LM
# T4 construct: expressed in transfected cells; host or cells: α6K562 cells
# α1β1 integrin [3] = target: T5, α1β1 integrin (Homo sapiens, UniProt P05556+P56199); experiment: adhesion of P1E6 blocked MV3 cells to immobilized collagen IV; assay type: cell-based; details: only α1β1 mediates adhesion
# T5 construct: expressed in transfected cells; host or cells: α1K562 cells
# Method: as §3, §4
# α1β1 integrin [4] = target: T5, α1β1 integrin; experiment: adhesion of α1K562 cells to collagen I; assay type: cell-based; details: α1β1, Coll I
# Method: as §1, §2
# α5β1 integrin = target: T6, α5β1 integrin (Homo sapiens, UniProt P05556+P08648); experiment: adhesion of K562 cells to fibronectin; assay type: cell-based
# T6 construct: endogenous in cells; host or cells: K562 cells
# Method: as §1, §2
# α2β1 integrin [5] = target: T3, α2β1 integrin; experiment: adhesion of α2K562 cells to collagen I; assay type: cell-based; set-up: expressed in transfected cells; host or cells: α2K562 cells
# Method: as §1, §2
# α1β1 integrin [6] = target: T5, α1β1 integrin; experiment: adhesion of α1K562 cells to immobilized collagen IV; assay type: cell-based; details: α1K562 cells, α1β1, collagen IV
# Method: Collagen IV (0.2 μg/well) in 0.02 M acetic acid was immobilized by incubation overnight at 4° C. on a 96-well plate. Plates were then blocked with 1% (w/v) BSA (bovine serum albumin) in Hank's Balanced Salt Solution (HBSS) containing 3 mM Mg^2+ at room temperature for 1-2 hours to prevent cells from non-specifically binding to the plates. α1K562 cells were labeled by incubation with 12.5 μM 5-chloromethylfluorescein diacetete (CMFDA) in HBSS for 15 minutes at 37° C. CMFDA labeled α1K562 cells were then pelleted, washed and resuspended in HBSS buffer containing 3 mM Mg^2+ and 1% BSA. […] The plates were washed three times with HBSS containing 3 mM Mg^2+ and 1% (w/v) BSA to remove unbound cells. Bound cells were lysed using 0.5% (v/v) Triton X-100 in H2O. Fluorescent CMFDA released by lysis of adherent cells in a given well was read using a Cytofluor 2350 fluorescence plate reader.
# as §1, §2
# T5 sequence (P56199 29-1179): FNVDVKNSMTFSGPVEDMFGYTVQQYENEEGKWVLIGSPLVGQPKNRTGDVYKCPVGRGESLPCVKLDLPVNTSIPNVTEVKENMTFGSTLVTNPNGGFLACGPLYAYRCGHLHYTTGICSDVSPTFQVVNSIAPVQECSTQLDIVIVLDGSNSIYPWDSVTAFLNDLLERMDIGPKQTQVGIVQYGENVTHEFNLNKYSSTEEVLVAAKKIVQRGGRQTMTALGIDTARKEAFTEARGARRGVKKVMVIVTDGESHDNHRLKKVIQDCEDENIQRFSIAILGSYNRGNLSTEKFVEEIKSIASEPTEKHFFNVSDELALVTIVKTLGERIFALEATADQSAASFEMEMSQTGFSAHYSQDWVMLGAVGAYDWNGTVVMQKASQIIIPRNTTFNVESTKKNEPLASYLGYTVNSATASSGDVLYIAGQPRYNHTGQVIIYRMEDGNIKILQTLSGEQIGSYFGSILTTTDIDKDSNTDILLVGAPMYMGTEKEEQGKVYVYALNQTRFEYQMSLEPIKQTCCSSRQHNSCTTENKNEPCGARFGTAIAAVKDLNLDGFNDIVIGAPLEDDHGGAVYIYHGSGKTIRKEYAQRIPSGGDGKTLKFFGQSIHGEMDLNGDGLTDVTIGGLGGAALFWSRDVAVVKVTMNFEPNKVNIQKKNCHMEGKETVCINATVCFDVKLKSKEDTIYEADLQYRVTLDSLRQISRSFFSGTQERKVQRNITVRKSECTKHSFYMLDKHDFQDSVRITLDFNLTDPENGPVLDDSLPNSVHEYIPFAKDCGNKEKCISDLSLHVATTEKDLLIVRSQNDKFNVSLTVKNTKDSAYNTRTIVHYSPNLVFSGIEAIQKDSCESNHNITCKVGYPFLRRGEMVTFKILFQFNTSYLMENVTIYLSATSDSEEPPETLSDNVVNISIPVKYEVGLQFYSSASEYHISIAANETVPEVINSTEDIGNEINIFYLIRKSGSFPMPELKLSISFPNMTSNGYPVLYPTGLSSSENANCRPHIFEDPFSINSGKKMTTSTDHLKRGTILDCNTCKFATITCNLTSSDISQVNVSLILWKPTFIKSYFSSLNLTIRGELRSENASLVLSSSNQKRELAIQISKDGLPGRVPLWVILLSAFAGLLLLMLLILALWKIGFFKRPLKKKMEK
# T5 sequence (P05556 21-798): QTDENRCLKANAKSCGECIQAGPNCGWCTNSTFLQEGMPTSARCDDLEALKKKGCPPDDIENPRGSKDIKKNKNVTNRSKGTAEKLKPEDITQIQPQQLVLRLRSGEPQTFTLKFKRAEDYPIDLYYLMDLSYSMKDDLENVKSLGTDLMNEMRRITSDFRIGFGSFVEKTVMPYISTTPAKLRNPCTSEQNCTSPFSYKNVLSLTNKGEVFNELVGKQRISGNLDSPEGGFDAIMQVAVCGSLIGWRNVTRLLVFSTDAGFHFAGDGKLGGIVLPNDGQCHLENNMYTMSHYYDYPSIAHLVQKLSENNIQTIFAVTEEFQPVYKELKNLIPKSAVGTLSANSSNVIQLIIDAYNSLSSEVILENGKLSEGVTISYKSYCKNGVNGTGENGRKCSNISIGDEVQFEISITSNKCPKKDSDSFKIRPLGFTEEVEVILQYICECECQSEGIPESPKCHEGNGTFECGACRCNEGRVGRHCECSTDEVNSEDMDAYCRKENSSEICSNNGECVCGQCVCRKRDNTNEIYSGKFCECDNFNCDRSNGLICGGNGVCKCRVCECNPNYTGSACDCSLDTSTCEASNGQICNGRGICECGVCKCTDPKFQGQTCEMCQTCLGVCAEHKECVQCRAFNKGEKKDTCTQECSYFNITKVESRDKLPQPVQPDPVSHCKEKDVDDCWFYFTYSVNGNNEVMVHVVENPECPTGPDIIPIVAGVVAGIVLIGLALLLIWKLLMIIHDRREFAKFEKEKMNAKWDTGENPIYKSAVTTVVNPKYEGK
# T6 sequence (P08648 42-894 limits assumed): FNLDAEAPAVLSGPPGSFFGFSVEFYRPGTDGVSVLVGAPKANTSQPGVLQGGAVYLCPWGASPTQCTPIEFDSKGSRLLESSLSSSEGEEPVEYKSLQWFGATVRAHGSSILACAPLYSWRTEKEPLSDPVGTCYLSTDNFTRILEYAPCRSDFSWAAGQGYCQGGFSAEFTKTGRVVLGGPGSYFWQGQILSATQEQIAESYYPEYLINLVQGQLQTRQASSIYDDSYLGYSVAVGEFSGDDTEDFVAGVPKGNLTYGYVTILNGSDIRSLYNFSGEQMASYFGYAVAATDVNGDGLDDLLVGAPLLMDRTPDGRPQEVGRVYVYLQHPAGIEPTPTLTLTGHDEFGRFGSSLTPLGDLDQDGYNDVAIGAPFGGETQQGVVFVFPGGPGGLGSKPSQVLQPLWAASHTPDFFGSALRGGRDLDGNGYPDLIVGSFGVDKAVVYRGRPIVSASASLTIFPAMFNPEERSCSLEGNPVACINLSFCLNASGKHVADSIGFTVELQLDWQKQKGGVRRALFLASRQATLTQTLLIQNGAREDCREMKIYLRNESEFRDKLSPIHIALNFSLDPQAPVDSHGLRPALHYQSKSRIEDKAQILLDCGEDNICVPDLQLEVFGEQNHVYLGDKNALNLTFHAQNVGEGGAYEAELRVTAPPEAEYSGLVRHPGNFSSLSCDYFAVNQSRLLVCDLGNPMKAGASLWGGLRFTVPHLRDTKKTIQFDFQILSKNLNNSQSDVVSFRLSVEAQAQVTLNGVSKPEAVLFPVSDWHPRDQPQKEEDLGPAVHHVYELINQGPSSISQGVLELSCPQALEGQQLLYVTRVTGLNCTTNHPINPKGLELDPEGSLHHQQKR
# T6 sequence (P08648 895-1049 partner limits assumed): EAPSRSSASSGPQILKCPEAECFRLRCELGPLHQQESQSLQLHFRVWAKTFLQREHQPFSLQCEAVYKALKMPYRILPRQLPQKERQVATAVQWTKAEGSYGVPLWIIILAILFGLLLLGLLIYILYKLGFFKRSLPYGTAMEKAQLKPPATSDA
# T6 sequence (P05556 21-798): as the sequence (P05556 21-798) above
# T4 sequence (P23229 24-938 limits assumed): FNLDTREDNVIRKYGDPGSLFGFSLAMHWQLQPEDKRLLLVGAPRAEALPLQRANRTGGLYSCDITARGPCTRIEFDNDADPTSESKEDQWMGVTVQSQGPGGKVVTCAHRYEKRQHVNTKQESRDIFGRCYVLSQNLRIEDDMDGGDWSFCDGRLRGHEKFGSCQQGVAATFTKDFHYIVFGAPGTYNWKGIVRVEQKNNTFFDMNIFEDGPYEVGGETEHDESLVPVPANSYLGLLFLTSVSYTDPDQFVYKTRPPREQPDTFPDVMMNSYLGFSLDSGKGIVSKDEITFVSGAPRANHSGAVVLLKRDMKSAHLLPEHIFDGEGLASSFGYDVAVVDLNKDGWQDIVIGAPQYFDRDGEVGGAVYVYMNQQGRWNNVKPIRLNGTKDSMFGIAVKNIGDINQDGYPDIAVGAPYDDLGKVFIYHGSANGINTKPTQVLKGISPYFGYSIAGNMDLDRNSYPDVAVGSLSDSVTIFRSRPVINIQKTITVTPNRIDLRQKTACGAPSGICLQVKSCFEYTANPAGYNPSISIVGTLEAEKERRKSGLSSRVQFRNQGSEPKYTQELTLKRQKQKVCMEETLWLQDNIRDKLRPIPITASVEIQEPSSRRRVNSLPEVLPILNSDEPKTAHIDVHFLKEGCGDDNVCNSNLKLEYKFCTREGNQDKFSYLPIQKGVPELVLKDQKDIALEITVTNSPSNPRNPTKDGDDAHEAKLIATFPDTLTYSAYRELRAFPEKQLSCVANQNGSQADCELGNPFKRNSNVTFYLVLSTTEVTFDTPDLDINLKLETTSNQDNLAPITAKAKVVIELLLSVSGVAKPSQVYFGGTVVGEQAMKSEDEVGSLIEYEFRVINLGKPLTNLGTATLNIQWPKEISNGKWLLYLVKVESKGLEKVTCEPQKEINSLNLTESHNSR
# T4 sequence (P23229 942-1130 partner limits assumed): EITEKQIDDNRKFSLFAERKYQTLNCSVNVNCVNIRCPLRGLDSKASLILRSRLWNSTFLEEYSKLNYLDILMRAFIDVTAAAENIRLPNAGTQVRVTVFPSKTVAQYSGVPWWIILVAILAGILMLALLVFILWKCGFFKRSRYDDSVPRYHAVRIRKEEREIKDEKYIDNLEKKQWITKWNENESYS
# T4 sequence (P05556 21-798): as the sequence (P05556 21-798) above
substance,measurement,setting,value
Obtustatin (CTTGPCCRQCKLKPAGTTCWKTSLTSHYCTGKSCDCPLYPG),IC50,α4β1 integrin,> 10000 nM
same,IC50,α1β1 integrin [1],0.2 nM
same,inhibition of adhesion of MV3 cells to collagen IV,α1β1 and α2β1 integrins,comparatively insensitive
same,inhibition of adhesion of MV3 cells to collagen IV,α2β1 integrin [2],comparatively insensitive
same,IC50,α6β1 integrin,> 10000 nM
same,inhibition of adhesion of MV3 cells to collagen IV,α1β1 integrin [3],inhibited by significantly lower obtustatin concentrations
same,IC50,α1β1 integrin [4],0.5 nM
same,IC50,α5β1 integrin,> 10000 nM
same,IC50,α2β1 integrin [5],> 10000 nM
same,IC50,α1β1 integrin [6],2 nM
